Laboratory results from a protein production outcome set (Wang et al. 2014).

Assay: label from the status in PepcDB records

Sequence	protein production
MAKKTKAKAAKAARPKAAKTAVAKAKPAKRGVAARSVAAKPPKVAPGELVTLLDFVRYAVSRFAEAGVVFAHGTTDPIAEAVFLVGEALHLHPDQFEMFASARVTTREAAAILGLIERRIGSRLPAAYLVNKIYMRGVPFYVDERVIVPRSYIGELLDSHFDGGDTSLIDAPEAIERVLDLCTGSGCLAILAAYAFPNATVDAVDLSKDALAVATRNVAEHRLDDRVSLYHGDLFGPLGDERYDLIITNPPYVDADGMASLPAECRAEPAMAFDGGDDGLTIIRRILAEAKHHLNPDGGLLCEVGRCRPQIEDEFPQLPLLWLDSEDSEAEVFWIAAADL	failed
MDNEEYYKILGVAKSASQDEIKHAYRKMSKKYHPDLNHQPGAEDKYKQVQEAYETLGDPQKRAAYDQYGKAGANANNGQGGFGGFQQSGFNFNGQDFGDFSDIFSQMFGGSFNPNAPRKGRDLQYRINLTFEEAVFGKETEIKYVRQESGGNSKEHTVKVTIPAGVETGQQMRLAGQGEAGTHGGPYGDLYVEFIVGKSKDGFERQGANIYLEEPINFVQAALGDKIKVKTVHGDVELTIPAGTQTDTEFRLRGKGAPYVNSSRIGDEYVKVIVQVPKRLNEKEKKALKTYADLRGENVNPQKRRGLFG	failed
MAKELYVGHMSYEATEDDLRRLFSVAGTVTSVHIITDPETGRSKGCGYVRMLTEEEAKEAIETLDGALLRNRVITVSVARPQKQATRPAPRRGKPGPGGRPGKKRPS	failed
MADSSNKKKAASHESKKSNMEIMFSGSDSLTKRERRKKKQLIARSVGFALIGIEVIALIIFLAALFKLNMIPAKYMAMLIGILLLITVYNVLSQFTKAHWVGKVLAVLLAVVMFVGSSYIGKANSVISNIAGVTTKTDTFSLVVLATDPATGVEATKNYTFGYNKINNKDMAESLIQEVNTTLGTNVKTRTYDNWTNIINALYNNEVKVIVFNESNRAMLEEQFTDFEEKTKVIYTKTYTTQIKENVVNKNTATESFTIYVSGNDDYGAISANGRSDVNIVATFNPKTRQVLMVSTPRDYWVPVDTLSTDSNGKAVTGYEKLTHAGNYGVDSSISTLESLYGVDVDYYVKVNFTGAVGVIDALGGITINSDVKFTNGEDAAPVAYNFVVGPNECDGEKALAFCRERQAFSDGDNQRGRNQMAAIEGMIDKATSTAILTQYNKVLDAVSGLIATNMPDSAISNLVKAQINDPTGWNIMSYSVSGTGATKTGQLFGIVGMSVIEPDYSTVNTAIELMSKVRNGEVFDIDQFLEDKALESGTTQAR	failed
MALLKSPIFGICFSLILYTIGQDLFKKSKGFFLLQPLFFAMVAGIIVLVLLAKGLGTDVKTLYTQAYKPGGDLIFWFLNPATIAFAVPLYKKNDAVKKYWKEIISSLIIGMVVSLIIIVAISKAIGLSQASTASMLPQAATTAIALPIAHAIGGNTAITAMACILNAVIIYALGKKLVALFHLNKSEIGVGLGLGTSGHTVGAAFALELGELQGAMAAIAVVVIGLVVDLVIPIFSYMIGLVH	failed
MADWLIGLIMGAVEGLTEFLPVSSTGHMILTGHLIGFDDERAKVFEVVIQLGSILAVVVIFWKRLWSLVGIGKVTDGPSLNLLHIIIGMIPAGVLGVLFHSTIKEGLFGPGPVVISLVAGGILMIVAEKFSKPSTARTLDEITYKQAFTIGMFQCLALWPGFSRSGSTISGGLLARVSHTAAAEYTFILAVPMMVAASGLDLIKSWDVLSSADITLFVTGFVTAFVVAMLAIVSFLKLLSRVKLTPFAYYRFILAAVFYFFIM	failed
MMLSSNSFSLNLSNEDYIWPLEEDQEETTDSSGPMMLSPPLPEGACFNFEDRNTVYVHSRRPEDTPKSFELYSIPEDLALDSPFPSCEQTTFFTTKPDKSFLLDIKNSSPLNIGRMQNSRS	not failed
MLKPMYYEFFFIFPKERELFESFLLDATHLALEESSLENLKAFDDKETIGFISQSNWHYFATHDPLKKDLKENLKEKPPHLKNFVILRSQKDLNNSLIPALEAFCLNLKQNLQSEFDFFYLSRNLASKDWLEAYKQAILPVQCTKFYIHPSWHQKPSHVVTNDCIMIDPALAFGSGHHESTSMCLELLSDIDLKRKNALDVGCGSGILSIALKKQGVSALVACDTDSLAVEETLKNFSLNQIPLLVQDKVIYGSTQKIEGRFDVIVANLVADVIKSLYSEFVRLCNHTLILSGILETHLNSVLQIYYNGFEVLEQRQRNEWVALKLLKKQPIN	failed
NQTRLNKLQKTLVDKQIDFAFISDYKTIQYITGFGSNPYERILAMIVFADKDPFIFAPALEVEVVKSVGWPYDLYGYQDNEDGLEMIYDHIKERSANPKKIATEQGNLTLSRFNRLQAAFPDADYSFNLTPVIEHQR	not failed
